The target of test [1] is human GPRC5D antigen (Cat #:HM05P, Kactus Biosystems) (human) (UniProt Q9NZD1). The experiment in a line: SPR (BIAcore 8K), antibody captured by anti-human Fc on CM5 chip, antigen as analyte.
Test [2] deals with human GPRC5D expressed on HEK293T cells (human) (UniProt Q9NZD1). The test can be described thus: FACS on HEK293T/human GPRC5D cells, PE goat anti-human IgG (H+L) secondary antibody, MFI.
The target of test [3] is human CD3D&E protein (Cat #: CT038-H2508H, Sino biological) (human) (UniProt P04234). The test can be described thus: SPR (BIAcore 8K), antibody captured by anti-human Fc on CM5 chip, antigen as analyte. In general terms: Surface plasmon resonance follows binding to a sensor surface in real time, without labels.
Test [4] addresses human BCMA antigen (Cat #:BCA-H522y, ACRO) (human) (UniProt Q02223). The test is described as above.
In test [5] the target is human CD3 complex on Jurkat cells (human) (UniProt P07766). The test can be described thus: FACS on Jurkat cells, PE goat anti-human IgG (H+L) secondary antibody, MFI.
For test [6], the target named is monkey BCMA expressed on HEK293A cells (monkey). The experiment in a line: FACS on HEK293A/monkey BCMA cells, PE goat anti-human IgG (H+L) secondary antibody, MFI.
For test [7], the target named is mouse BCMA expressed on HEK293A cells (mouse) (UniProt O88472). The experiment in a line: FACS on HEK293A/mouse BCMA cells, PE goat anti-human IgG (H+L) secondary antibody, MFI.
The target of test [8] is human BCMA expressed on HEK293A cells (human) (UniProt Q02223). The test can be described thus: FACS on HEK293A/human BCMA cells, PE goat anti-human IgG (H+L) secondary antibody, MFI.
Chain of human BCMA expressed on HEK293A cells (human) (Q02223 whole entry): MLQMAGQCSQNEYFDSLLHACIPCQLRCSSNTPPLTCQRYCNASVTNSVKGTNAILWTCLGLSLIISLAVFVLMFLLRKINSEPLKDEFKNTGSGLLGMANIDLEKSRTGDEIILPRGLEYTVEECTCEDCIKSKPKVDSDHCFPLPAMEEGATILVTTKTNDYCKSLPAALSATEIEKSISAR

Chain of human BCMA antigen (Cat #:BCA-H522y, ACRO) (human) (Q02223 1-54 limits assumed): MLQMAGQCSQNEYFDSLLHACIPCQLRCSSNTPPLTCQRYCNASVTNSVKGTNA
Chain of human CD3D&E protein (Cat #: CT038-H2508H, Sino biological) (human) (P04234 22-105, chain 1 of 2): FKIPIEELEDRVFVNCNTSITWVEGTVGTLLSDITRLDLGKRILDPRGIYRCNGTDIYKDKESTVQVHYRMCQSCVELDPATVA
Chain of human CD3D&E protein (Cat #: CT038-H2508H, Sino biological) (human) (P07766 23-126, chain 2 of 2, further chain): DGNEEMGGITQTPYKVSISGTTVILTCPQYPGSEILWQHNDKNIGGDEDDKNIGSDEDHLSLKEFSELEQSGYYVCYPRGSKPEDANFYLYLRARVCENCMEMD
Chain of human GPRC5D antigen (Cat #:HM05P, Kactus Biosystems) (human) (Q9NZD1 whole entry): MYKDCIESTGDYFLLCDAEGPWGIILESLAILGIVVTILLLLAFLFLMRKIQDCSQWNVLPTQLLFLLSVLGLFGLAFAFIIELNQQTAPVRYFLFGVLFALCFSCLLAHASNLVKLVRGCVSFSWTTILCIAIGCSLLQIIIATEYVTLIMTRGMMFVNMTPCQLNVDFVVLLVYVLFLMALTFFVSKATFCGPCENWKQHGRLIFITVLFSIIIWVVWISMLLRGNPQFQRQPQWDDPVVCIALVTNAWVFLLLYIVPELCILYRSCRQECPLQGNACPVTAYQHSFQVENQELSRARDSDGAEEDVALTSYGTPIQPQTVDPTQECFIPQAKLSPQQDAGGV
Chain of human GPRC5D expressed on HEK293T cells (human) (Q9NZD1 whole entry): as above
Chain of monkey BCMA expressed on HEK293A cells (monkey) (Q02223 other isoform, or with tags, fused parts or gaps): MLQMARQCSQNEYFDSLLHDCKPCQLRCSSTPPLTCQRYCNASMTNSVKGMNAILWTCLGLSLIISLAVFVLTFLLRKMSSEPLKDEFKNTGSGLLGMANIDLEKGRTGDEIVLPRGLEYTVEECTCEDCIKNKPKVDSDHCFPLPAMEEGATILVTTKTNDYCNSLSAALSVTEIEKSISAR
Chain of mouse BCMA expressed on HEK293A cells (mouse) (O88472 whole entry): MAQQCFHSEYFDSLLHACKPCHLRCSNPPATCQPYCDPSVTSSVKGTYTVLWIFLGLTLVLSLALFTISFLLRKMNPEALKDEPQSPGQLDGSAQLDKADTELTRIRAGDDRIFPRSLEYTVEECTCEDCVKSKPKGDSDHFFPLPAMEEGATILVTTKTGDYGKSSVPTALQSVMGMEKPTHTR
Chain of human CD3 complex on Jurkat cells (human) (P07766 23-207, chain 1 of 4): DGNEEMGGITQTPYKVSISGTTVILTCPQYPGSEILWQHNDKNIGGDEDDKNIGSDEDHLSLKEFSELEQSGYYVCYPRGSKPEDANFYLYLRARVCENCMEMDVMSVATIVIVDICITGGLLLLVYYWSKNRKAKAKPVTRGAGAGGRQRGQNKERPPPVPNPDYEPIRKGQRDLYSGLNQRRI
Chain of human CD3 complex on Jurkat cells (human) (P04234 22-171, chain 2 of 4, further chain): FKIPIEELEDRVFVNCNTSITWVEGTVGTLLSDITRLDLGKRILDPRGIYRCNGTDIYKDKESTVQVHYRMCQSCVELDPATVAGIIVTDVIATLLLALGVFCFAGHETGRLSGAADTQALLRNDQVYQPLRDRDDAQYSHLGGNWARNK
Chain of human CD3 complex on Jurkat cells (human) (P09693 23-182, chain 3 of 4, further chain): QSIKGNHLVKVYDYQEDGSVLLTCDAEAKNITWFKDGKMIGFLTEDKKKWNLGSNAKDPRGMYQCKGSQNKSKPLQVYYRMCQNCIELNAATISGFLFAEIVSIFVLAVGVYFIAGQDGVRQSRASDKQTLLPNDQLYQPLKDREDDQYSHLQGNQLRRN
Chain of human CD3 complex on Jurkat cells (human) (P20963 22-164, chain 4 of 4, further chain): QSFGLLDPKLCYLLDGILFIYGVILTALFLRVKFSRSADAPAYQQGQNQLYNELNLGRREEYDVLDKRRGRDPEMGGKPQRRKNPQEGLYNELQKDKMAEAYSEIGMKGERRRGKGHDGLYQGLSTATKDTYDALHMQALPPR

In test [1], “JNJ-64407564 (bi-specific GPRC5D×CD3 antibody) (bispecific antibody)” returned a Kd of 4.21 nM. Also, the EC50 (read off the curve) in test [2] was determined as 0.1 µg/mL.
On to “EM801 (bi-specific BCMA×CD3 antibody) (bispecific antibody)”, for which the Kd in test [3] came to 41 nM; in test [4] it was 0.996 nM. Moreover, the results for the koff in test [3] and in test [4] were 0.00757 s⁻¹ and 0.00227 s⁻¹, respectively. The kon in test [3] stood at 185000 M⁻¹ s⁻¹; in test [4], 2.28e+06 M⁻¹ s⁻¹. The EC50 (read off the curve) in test [5] amounted to 0.7 µg/mL; in test [6] it was 0.1 µg/mL; in test [7] it was 0.2 µg/mL; in test [8] it was 0.07 µg/mL.

As usually defined, the Kd is the free concentration of one partner at which half of the binding sites on the other are occupied at equilibrium, for simple one-to-one binding. Broadly, the EC50 (read off the curve) is the concentration giving half of the maximal effect. A word on the koff: it is a measure of how fast the partners let go of each other. One may read the kon as a measure of how fast the partners come together.
